The Kd is the concentration at which binding is half-saturated. As usually defined, the koff is the first-order rate constant of dissociation. Usually kon stands for a measure of how fast the partners come together.

We go through three molecules from patent publication US20260234234A1 (QILU PUGET SOUND BIOTHERAPEUTICS, published 2026).

The target of assay [1] is T1, Avitag_c-MYC_His6_hTSLP (wild type) QB11630 (human).
T1 construct: N-terminal tags are part of the entry; also called in-house hTSLP native antigen QB11630
Description: SPR, in-house hTSLP QB11630 analyte. For orientation: SPR reads the build-up and loss of mass on a sensor chip optically.

In assay [2] the target is T2, Avitag_c-MYC_His6_hTSLP QB11631 with mutations of R127A + R130S (human). Description: cell-based or functional assay.
Assay [3] has as its target T3, Avitag_FLAG_His6_cyTSLP QB11633 with mutations of R127A + R130S (cynomolgus monkey).
T3 chain: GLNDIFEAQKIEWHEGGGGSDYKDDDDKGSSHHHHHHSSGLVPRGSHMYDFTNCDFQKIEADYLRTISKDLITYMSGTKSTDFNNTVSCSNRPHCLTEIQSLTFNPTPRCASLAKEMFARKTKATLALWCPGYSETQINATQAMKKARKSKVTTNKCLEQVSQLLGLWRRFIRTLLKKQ
Description: cell-based or functional assay.

The target in assay [4] is T4, Avitag_FLAG_His6_cyTSLP QB11632 (wild type) (cynomolgus monkey).
T4 chain: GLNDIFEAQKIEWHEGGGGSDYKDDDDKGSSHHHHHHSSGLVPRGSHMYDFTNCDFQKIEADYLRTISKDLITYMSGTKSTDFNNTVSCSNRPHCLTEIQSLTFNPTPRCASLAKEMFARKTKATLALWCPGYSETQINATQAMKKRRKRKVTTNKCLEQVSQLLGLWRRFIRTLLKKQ
The experiment in a line: cell-based or functional assay.

Assay [5] addresses T4, Avitag_FLAG_His6_cyTSLP QB11632 (wild …). Description: SPR, captured antibody, monomeric TSLP analyte, 25 C, 1:1 Langmuir fit.
Assay [6] addresses T3, Avitag_FLAG_His6_cyTSLP QB11633 with …. Described as above.
Assay [7] addresses T5, native hTSLP derived from human Small Airway Epithelial Cells (healthy donor 1 and donor 2) (human, UniProt Q969D9 29-159, limits assumed). The experiment in a line: cell-based or functional assay.
The target of assay [8] is T2, Avitag_c-MYC_His6_hTSLP QB11631 with …. The experiment in a line: SPR, captured antibody, monomeric TSLP analyte, 25 C, 1:1 Langmuir fit.
For assay [9], the target named is hTSLP, R&D Systems 1398-TS-010 (E. coli) (human, UniProt Q969D9 29-159, limits assumed). The description is as above.
For assay [10], the target named is T1, Avitag_c-MYC_His6_hTSLP (wild type) …. Described as above.
Assay [11] shares this target. Description: cell-based or functional assay.
Assay [12] addresses T5, native hTSLP derived from human Small …. Description: cell-based or functional assay. This is another data set of the same source.
The target of assay [13] is T6, cyTSLP, ACRO Biosystems TSP-C52H8 (HEK293) (cynomolgus monkey, UniProt A0A7N9CAT7 29-159).
T6 construct: also called Acro WT
The experiment in a line: SPR, captured antibody, monomeric TSLP analyte, 25 C, 1:1 Langmuir fit.

Assay [14] addresses T7, cyTSLP (R127A, R130S), Sino Biological 90911-C08H-100 (HEK293) (cynomolgus monkey, UniProt A0A7N9CAT7 29-159).
T7 construct: also called Sino-RA-RS
The assay is described as above.

Assay [15] addresses T8, cyTSLP (R127A, R130S), ACRO Biosystems TSP-C52H4 (HEK293) (cynomolgus monkey, UniProt A0A7N9CAT7 29-159).
T8 construct: also called Acro-RA-RS
The assay is described as above.

Assay [16] has as its target T1, Avitag_c-MYC_His6_hTSLP (wild type) …. Description: cell-based or functional assay. The source holds these as a separate data set.
Assay [17] has the same target. The experiment in a line: cell-based or functional assay. The source holds these as a separate data set.
Assay [18] deals with T9, hTSLP, ACRO Biosystems TSP-H52Hb (HEK293) (human, UniProt Q969D9 29-159, limits assumed).
T9 construct: also called Acro-WT
Description: SPR, captured antibody, monomeric TSLP analyte, 25 C, 1:1 Langmuir fit.

For assay [19], the target named is T2, Avitag_c-MYC_His6_hTSLP QB11631 with …. The experiment in a line: cell-based or functional assay. This is another data set of the same source.
Assay [20] shares this target. The experiment in a line: cell-based or functional assay. This is another data set of the same source.
For assay [21] the target is unchanged. The experiment in a line: cell-based or functional assay. This is another data set of the same source.
The target in assay [22] is T1, Avitag_c-MYC_His6_hTSLP (wild type) …. Description: cell-based or functional assay. The source holds these as a separate data set.
Assay [23] has as its target T4, Avitag_FLAG_His6_cyTSLP QB11632 (wild …). Description: cell-based or functional assay.
The target is the same in assay [24]. The experiment in a line: cell-based or functional assay.
Assay [25] shares this target. The experiment in a line: cell-based or functional assay.
For assay [26], the target named is T1, Avitag_c-MYC_His6_hTSLP (wild type) …. The experiment in a line: cell-based or functional assay. The source holds these as a separate data set.
The target in assay [27] is T2, Avitag_c-MYC_His6_hTSLP QB11631 with …. Description: cell-based or functional assay. The source holds these as a separate data set.
Assay [28] shares this target. Description: SPR (Biacore).
Assay [29] concerns the target T10, cyTSLP antigen, version not stated (cynomolgus monkey, UniProt A0A7N9CAT7 29-159).
T10 construct: Used where the text only says cyTSLP
Description: SPR (Biacore).

The target in assay [30] is T2, Avitag_c-MYC_His6_hTSLP QB11631 with …. The experiment in a line: SPR (Biacore), hTSLP (R127A+R130S) antigen.

B1: anti-hTSLP IgG1-D265A antibody QB11764 (antibody, V domains shown)
VH: EVQLVESGGGLVQPGGSLRLSCAASGFDFSSYWISWVRQAPGKRPEWIASIDIDIDIADYASWAKGRFTISRDNSKNTLYLQMNSLRAEDTAVYYCVRNLGLWGPGTLVTVSS
VL: DIQMTQSPSSLSASVGDRVTITCQSSQNVYDKDALAWYQHKPGKRPKLLIYEASRLASGVPSRFSGSGSGTHFTLTISSLQPEDAATYYCAGTRIDNIYTFGDGTKVEIKR
notes: QB11548 altered for MabPair production; alterations are in the entries; also called lead anti-hTSLP antibody QB11764
Take B1: the “fold lower binding affinity against QB10985” value in assay [1] is roughly 3 fold. Moreover, the “IC50, inhibition of TSLP-induced proliferation of BaF3 cells expressing hTSLPR/hIL-7Rα (CellTiter-Glo, RLU); stimulus hTSLP QB11631” value in assay [2] was 0.17 nM. In [3], the “IC50, inhibition of TSLP-induced proliferation of BaF3 cells expressing hTSLPR/hIL-7Rα (CellTiter-Glo, RLU); stimulus cyTSLP QB11633” value was 0.12 nM. Besides, the “IC50, inhibition of TSLP-induced proliferation of BaF3 cells expressing hTSLPR/hIL-7Rα (CellTiter-Glo, RLU); stimulus cyTSLP QB11632” value in [4] turned out to be 0.34 nM. Besides, the Kd in [5] amounted to 1.27 nM; in assay [6], 0.131 nM; in assay [8] it was 0.0595 nM; in assay [9], 0.004 nM; in [10], 0.154 nM. For the same molecule, the koff worked out at 0.000174 s⁻¹ in assay [5]; 0.000132 s⁻¹ in assay [6]; 0.000192 s⁻¹ in assay [8]; 0.000142 s⁻¹ in assay [9]; 0.000196 s⁻¹ in [10]. Moreover, the on-rate constant (kon) in assay [5] was found to be 137000 M⁻¹ s⁻¹; in [6], 1.01e+06 M⁻¹ s⁻¹; in [8] it was 3.23e+06 M⁻¹ s⁻¹; in [9] it was 3.56e+07 M⁻¹ s⁻¹; in [10] it was 1.27e+06 M⁻¹ s⁻¹. Also, the “IC50, inhibition of TSLP-induced proliferation of BaF3 cells expressing hTSLPR/hIL-7Rα (CellTiter-Glo, RLU); stimulus native hTSLP from healthy donor 2” value in assay [7] worked out at 0.012 nM. Also, the “IC50, inhibition of TSLP-induced proliferation of BaF3 cells expressing hTSLPR/hIL-7Rα (CellTiter-Glo, RLU); stimulus hTSLP QB11630” value in [11] was 0.1 nM. Further, in assay [12], the “IC50, inhibition of TSLP-induced proliferation of BaF3 cells expressing hTSLPR/hIL-7Rα (CellTiter-Glo, RLU); stimulus native hTSLP from healthy donor 1” value was found to be 0.012 nM.

B2: anti-hTSLP IgG1-D265A antibody QB11718 (antibody, V domains shown)
VH: QVQLVQSGPEVKKPGSSVKVSCKASGYIFTDYAMHWVRQRPGQDLEWMGTFIPLLDTSDYNQNFKGRATITADKSTSTAYMELSSLRSEDTAVYYCARMGVTHSYVMDAWGQGTLVTVSS
VL: EIVLTQSPGTLSLSPGERATLSCRASQHISRSVHWYQQKPGEAPRLLIYFASQSISGIPDRFSGSGSGTDFTLTISRLESEDFAVYYCQQSYSFPYTFGRGTKVEIKR
notes: QB11237 altered for MabPair production; alterations are in the entries; also called lead anti-hTSLP antibody QB11718
As for B2, the “IC50, inhibition of TSLP-induced proliferation of BaF3 cells expressing hTSLPR/hIL-7Rα (CellTiter-Glo, RLU); stimulus hTSLP QB11631” value in assay [2] was 0.012 nM. The “IC50, inhibition of TSLP-induced proliferation of BaF3 cells expressing hTSLPR/hIL-7Rα (CellTiter-Glo, RLU); stimulus cyTSLP QB11633” value in assay [3] amounted to 0.0022 nM. Further, the “IC50, inhibition of TSLP-induced proliferation of BaF3 cells expressing hTSLPR/hIL-7Rα (CellTiter-Glo, RLU); stimulus cyTSLP QB11632” value in assay [4] worked out at 0.012 nM. Further, the Kd in assay [13] was 0.0295 nM; in assay [14], 0.0187 nM; in assay [15], 0.0263 nM; in assay [5] it was 0.831 nM; in assay [6] it was 0.075 nM; in assay [8] it was 0.0163 nM. In addition, the Kd was 0.00502 nM in assay [9], 0.0778 nM in assay [10] and 0.0118 nM in [18]. In addition, the “IC50, inhibition of TSLP-induced pSTAT5 (AlphaLISA, MFI) in BaF3 cells expressing hTSLPR/hIL-7Rα; stimulus hTSLP QB11630” value in assay [16] came to 1.7 nM. Besides, the “IC50, inhibition of TSLP-induced proliferation of BaF3 cells expressing hTSLPR/hIL-7Rα (CellTiter-Glo, RLU); stimulus native hTSLP from healthy donor 2” value in assay [7] came out at 0.0018 nM. The “IC50, inhibition of TSLP-induced CCL17 release from primary human monocytes (ELISA, pg/mL); stimulus hTSLP QB11630” value in assay [17] was found to be 0.0045 nM. Further, the “IC50, inhibition of TSLP-induced CCL17 release from primary human monocytes (ELISA, pg/mL); stimulus hTSLP QB11631” value in assay [19] stood at 0.0013 nM. The “IC50, inhibition of TSLP-induced pSTAT5 (AlphaLISA, MFI) in BaF3 cells expressing hTSLPR/hIL-7Rα; stimulus hTSLP QB11631” value in [20] was 0.78 nM. In addition, the figures for the “IC50, inhibition of hTSLP-induced IL-5 secretion from human ILC2s” value in assay [21] and in assay [22] were 0.35 nM and 0.1 nM, respectively. In addition, in assay [11], the “IC50, inhibition of TSLP-induced proliferation of BaF3 cells expressing hTSLPR/hIL-7Rα (CellTiter-Glo, RLU); stimulus hTSLP QB11630” value was found to be 0.0058 nM. In assay [12], the “IC50, inhibition of TSLP-induced proliferation of BaF3 cells expressing hTSLPR/hIL-7Rα (CellTiter-Glo, RLU); stimulus native hTSLP from healthy donor 1” value was determined as 0.0014 nM. The “IC50, inhibition of TSLP-induced pSTAT5 (AlphaLISA, MFI) in cultured primary human ILC2 cells; stimulus cyTSLP QB11632” value in [23] was found to be 0.46 nM. In assay [24], the “IC50, inhibition of TSLP-induced pSTAT5 (AlphaLISA, MFI) in BaF3 cells expressing hTSLPR/hIL-7Rα; stimulus cyTSLP QB11632” value came to 0.28 nM. In addition, in assay [25], the “IC50, inhibition of TSLP-induced CCL17 release from primary human monocytes (ELISA, pg/mL); stimulus cyTSLP QB11632” value was 0.0027 nM. Further, in [26], the “IC50, inhibition of TSLP-induced pSTAT5 (AlphaLISA, MFI) in cultured primary human ILC2 cells; stimulus hTSLP QB11630” value was determined as 1.5 nM. The “IC50, inhibition of TSLP-induced pSTAT5 (AlphaLISA, MFI) in cultured primary human ILC2 cells; stimulus hTSLP QB11631” value in assay [27] stood at 3.1 nM.

B3: anti-hTSLP QB11060, humanized antibody clone hz-3C-V6 (antibody, human IgG4 S228P, kappa, V domains shown)
VH: QVQLVQSGPEVKKPGSSVKVSCKASGYIFTDYAMHWVRQRPGQGLEWMGTFIPLLDTSDYNQNFKGRATITADKSTSTAYMELSSLRSEDTAVYYCARMGVTHSYVMDAWGQGTLVTVSS
VL: EIVLTQSPGTLSLSPGERATLSCRASQPISISVHWYQQKPGEAPRLLIYFASQSISGIPDRFSGSGSGTDFTLTISRLESEDFAVYYCQQTFSLPYTFGTGTKVEIKR
notes: hz-3C with D9P + S108L in the VH
As to B3, the “fold lower binding affinity against comparator QB10985” value in assay [28] was 8.8 fold. Also, the “fold binding difference between hTSLP and cyTSLP” value in assay [29] was less than 10 fold. Also, in assay [30], the Kd came to 1.62 nM, the off-rate (koff) was determined as 0.000852 s⁻¹ and the kon is 527000 M⁻¹ s⁻¹.
